# Assay: soluble on expression in E. coli; label from the status in PepcDB or PDB records
row,Sequence,soluble on expression in E. coli
1,MHHHHHHSSGVDLGTENLYFQSMAAGGDHGSPDSYRSPLASRYASPEMCFVFSDRYKFRTWRQLWLWLAEAEQTLGLPITDEQIREMKSNLENIDFKMAAEEEKRLRHDVMAHVHTFGHCCPKAAGIIHLGATSCYVGDNTDLIILRNALDLLLPKLARVISRLADFAKERASLPTLGFTHFQPAQLTTVGKRCCLWIQDLCMDLQNLKRVRDDLRFRGVKGTTGTQASFLQLFEGDDHKVEQLDKMVTEKAGFKRAFIITGQTYTRKVDIEVLSVLASLGASVHKICTDIRLLANLKEMEEPFEKQQIGSSAMPYKRNPMRSERCCSLARHLMTLVMDPLQTASVQWFERTLDDSANRRICLAEAFLTADTILNTLQNISEGLVVYPKVIERRIRQELPFMATENIIMAMVKAGGSRQDCHEKIRVLSQQAASVVKQEGGDNDLIERIQVDAYFSPIHSQLDHLLDPSSFTGRASQQVQRFLEEEVYPLLKPYESVMKVKAE,soluble
2,MKTLVHLSDLHFGKTESHLVDAIAAEVRAVDSDLLVVSGDLTQRARKDEFLQARAFLDSLPGPRIVVPGNHDVPLWNVFARAMTPLSRYRRYIEADTDPFYADSEVAVVGINTARSLTIKNGRINVRQLKAATEKFAYMSDDITRIVVTHHPFEGLDLESDDGIVARADLAMDAFSRSGVDIILSGHQHLHRAGSSARRYLIDGYAALLVQAGTAVSSRVRQAANSFNIIRIEHPRISIECRAWQSLQSGFETSASYSFRQGSGGWEPALEHHHHHH,not soluble
3,MEQINEKNFNFYNRIGLDTFQALAKDGGFSTFVDLEIAYRYIQPTENIAEIGAGYGRCIDFLLAKKHQGKIIAVEQSPKLCEHLRAVYSSTIKIVEGDIYKVSFDHQIDAALWMWSGMIDFSVEEQAAVIKHIHELLTQKGKLFIDIPRIGIKTIADHIDQQRIKLTTDFGEIECYIPLSSEVKEYADAAGFTRVDEINYETATDKKRTMYILMK,not soluble
4,MRRTRRPRFVLMNKMDDLNLHYRFLNWRRRIREIREVRAFRYQERFKHILVDGDTLSYHGNSGEVGCYVASRPLTKDSNYFEVSIVDSGVRGTIAVGLVPQYYSLDHQPGWLPDSVAYHADDGKLYNGRAKGRQFGSKCNSGDRIGCGIEPVSFDVQTAQIFFTKNGKRVGSTIMPMSPDGLFPAVGMHSLGEEVRLHLNAELGREDDSVMMVDSYEDEWGRLHDVRVCGTLLEYLGKGKSIVDVGLAQARHPLSTRSHYFEVEIVDPGEKCYIALGLARKDYPKNRHPGWSRGSVAYHADDGKIFHGSGVGDPFGPRCYKGDIMGCGIMFPRDYILDSEGDSDDSCDTVILSPTARAVRNVRNVMYLHQEGEEEEEEEEEEEDGEEIEPEHEGRKVVVFFTRNGKIIGKKDAVVPSGGFFPTIGMLSCGEKVKVDLHPLSG,soluble
5,MSLVLLYTPKQKTKNVQTITADILDLDYQGLGVAKINGKTWFIENALPHEKVECRILEDKRQYGHAIVKKWRVKSPERLEPKCAHFMRCGGCQGQHIPIEMQRKAKESALFKRLSKLQSEPISFQPMICGDAWAYRRRVRLSLWFNPSTKQIEMGFRQKNTNDLIPVQSCEVAEPAINYLLPKLTALLEKFSAPKQLGHIELVAADNGVAMLLRYTKNLAEIDRTLLLKFAEQEKLMLFLQSDKGIEQIYGDAPYYQFSDGIKLHFDIRDFIQVNSALNEPMVNTALDWLELSQQDCVLDLFCGMGNFTLPLAKRVKSAVGIEGVFEMVQKAAQNAERNQIKNIEFFQADLDQSFVEQPWANQSFNKILLDPPRSGAAFALNALCELKAEKILYVSCNPATLVRDAEILCNFGYKIEKSAVIDMFPHTGHLESITLFTTKEGHHHHHH,soluble
6,MTTQQKKSSTRQGFKTGESIVYPAHGVGQIVAIEEQEVAGMKLELFVIDFEKDKMRLKVPVAKAVGIGMRKLSETDFVDRALKVVQGKARVKRTMWSRRAQEYDAKINSGDLISIAEVVRDLYRAENQPEQSYSERQLYEAALDRMAREIAAVNRMSETEAVRLVEANLNKGPKRGKAIEEDDAQDEAA,not soluble
7,KPPIPPQVEEEYYTIAEFQTTIPDGISFQAGLKVEVIEKNLSGWWYIQIEDKEGWAPATFIDKYKKTSNASRPNFLAPLPHEVTQLRLGEAAALENNTGSEATGPSRPLPDAPHGVMDSGLPWSKDWKGSKDVLRKASSDMSASAGYEEISDPDMEEKPSLPPRKESIIKSEGELLERERERQRTEQLRGPTPKPPGVILPMMPAKHIPPARDSRRPEPKPDKSRLFQLKNDMGLECGHKVLAKEVKKPNLRPISKSKTDLPEEKPDATPQNPFLKSRPQVRPKPAPSPKTEPPQGEDQVDICNLRSKLRPAKSQDKSLLDGEGPQAVGGQDVAFSRSFLPGEGPGRAQDRTGKQDGLSPKEISCRAPPRPAKTTDPVSKSVPVPLQEAPQQRPVVPPRRPPPPKKTSSSSRPLPEVRGPQCEGHESRAAPTPGRALLVPPKAKPFLSNSLGGQDDTRGKGSLGPWGTGKIGENREKAAAASVPNADGLKDSLYVAVADFEGDKDTSSFQEGTVFEVREKNSSGWWFCQVLSGAPSWEGWIPSNYLRKKP,soluble
8,MNKTPRVGFVSLGCPKAASDSEQILTRLRAEGYEIAPSYDGADLVVVNTCGFIDSAVEESLDAIGEALNENGKVIVTGCLGAKGDVVRDVHPSVLAVTGPHATEEVMSAVHTHLPKPHDPFVDLVPDIGVRLTPKHYAYLKISEGCNHRCTFCIIPSMRGDLESRPIHDVLREAESLAKAGVKEILVISQDTSAYGVDTKYKLGFHNGRPVKTRMTELCEELGRHGIWVRLHYVYPYPHVDEVIPLMRDGKILPYLDIPFQHASQKVLKLMKRPANSDNVLARIKKWREICPELVIRSTFIVGFPGETEEDFEELLAFIREAELDRVGCFTYSPVEGATANELPNPVPEDVKEARKERFMAVQAEISARRLERRVGQTLQVLVDEIDDEGTAVCRSYADAPEIDGLVFVEDAAGMQPGEFYQVEIVDCSEHDLWGERRLEHHHHHH,soluble
9,MNSTQSRRVGLYGTGRAAAQLVGAIEASPHTLTTAIVFFDEQAGQDIGTLTGGRATGITATTDLEGAIRSGDFDVLAYAGLKGEVLHRAMELCADSGVDLVHACFVHPRVKLDPEMYSRLQKRAEETGARIVGTGMLPGFWLDVLPALLSSALPAPVSIIGESRSDITAWGRGVLADEMGLGTLADGQPGPVGGVLHESAEMIADILGLTGYESKVYGGYVTAHAATEVAGIQISPGDRVGFDEAATVVHDGRERVRIAWKGLPKGSFEGYERSLTVTAIGGDGSECTLSITPALDPYPGTAARIVHAVGALGALPGGQHTPVQLGI,not soluble
10,MARARARPGAVMSISGGLVRRRAEGRPLPAASAMSTVTLHRVLRASPERVYRAFLDAAALSKWLPPHGFTNTVEHLDARVGGTFRMAFTQFGSGQRHAFGGTYRELVPNALLRYDDVFDDPSLPGTLLTTVRLLPLPCGTDLHVVQEGIPEQIPLHACYLGWQESLTLLALLVEAQRAELEHHHHHH,not soluble
11,QLKDKFDGRPTKPPPNSYSLYCAELMANMKDVPSTERMVLCSQQWKLLSQKEKDAYHKKCDQKKKDYEVELLRFLESLPEEEQQRVLGEEKMLNI,soluble
12,MGSDKIHHHHHHMVRMEEPAVKQGFLHLQQQQTFGKKWRRFAAVLYGESGCALARLELQDVPEKTRRGEATRKVVRLSDCLRVAEVGSEASSPRDTSAFILETKERLYLLAAPSAERSDWIQAICLLAFPGQRKGSPGLEEKSGSPCMEENELYSSSTTGLCKEYMVTIRPTEASERCRLRGSYTLRTGVSALELWGGPEPGTQLYDWPYRFLRRFGRDKATFSFEAGRRCLSGEGNFEFETRHGNEIFQALEKVITVQKNATPSGPPSLPATGPMMPTVLPRPESPYSRPHDSLPSPSPGTLVPGMRPGAPEGEYAVPFDTVAHSLRKSFRGLLTGPPPHLPDPLYDSIQEDPGAPLPDHIYDEPEGVAALSLYDRTQRPSGETWREQATADGGPSSLQQDSSVPDWPQATEYDNVILKKGP,not soluble
13,MGRQIPPDPVFGDVLVAKLINRVMWDGKKTIAQKIVYGAFDIIREKTKKDPLEVFRQAVENVKPVLEVRPRRVGGATYQVPIEVQEPRRTSLALRWIVEAARAKKGRPMKEKLAEEIIAAYNNTGTAIKKKEDTHRMAEANRAFAHYRW,soluble
14,MVLRRDFLTWCNETLQTALFKDYAPNGLQVEGREYIGKIVTSVTASRAAIDFAVEQKADLLLVHHGMFWKNELPTVTGWKKERIAALLRHDINMAGYHLPLDAHPTLGNNAQLADRLGFATEKRFGEQNLLNSGSLKQAKTLGALAAHIETVLQRKPVVIGKPEREIRRVAWCSGGAQGFFQTAIDEGVDLYLTGEISEAQYHLANETGTAFISAGHHATERYGVRALAESAAEVFGLEVCHFDENNPALEHHHHHH,soluble
15,KFRTMRQNLQEASDVLDDQIESFTKIIQNHYKLSPNDFADPTIQSQSEIYAVGRIVPDSPTYDKFLNPESLSLETSRMGGVGRRVRLDLSQVNELSFFLGQIVAFKGKNANGDYFTVNSILPLPYPNSPVSTSQELQEFQANLEGSSLKVIVTCGPYFANDNFSLELLQEFIDSINNEVKPHVLIMFGPFIDITHPLIASGKLPNFPQFKTQPKTLDELFLKLFTPILKTISPHIQTVLIPSTKDAISNHAAYPQASLIRKALQLPKRNFKCMANPSSFQINEIYFGCSNVDTFKDLKEVIKGGTTSSRYRLDRVSEHILQQRRYYPIFPGSIRTRIKPKDVSTKKETNDMESKEEKVYEHISGADLDVSYLGLTEFVGGFSPDIMIIPSELQHFARVVQNVVVINPGRFIRATGNRGSYAQITVQCPDLEDGKLTLVEGEEPVYLHNVWKRARVDLIAS,soluble
16,AHHHHHHGSKYDVVVVGSGVAGPIVARDVAKAGFSVLLVDKKPAIGTPKQCAEGINVNVFKEFDIPYDKRFINREIYGARIYSPSGYTAELRYDKVSGVILERKVFDKMLAYYAAKAGADVWARTEVIDLLRKEGKIMGVKAKHEGELVEIEAKIIVAADGVESTVARLAGINTYAPPHEFDSAYEYEMIIEGYDPDLIHLWFGNEIAPRGYVWVFPKDEDRANVGIGINSDNEKTAKYYLDKWLKENNIPTKKILEINVGLVPVGGFVRELVKENVAVVGDAARQVNPVHGGGMYEAMKAANILAKWIVKALEEENLELLKNYTKEWWEVEGPKMERLLKLRRAMEKLTDEDIDVFVQLLGGTDLEKLAGGNYFEVVKALMKHPKVLMSKRRLEILKALL,soluble
17,GSACELPECQEDAGNKVCSLQCNNHACGWDGGDCSLNFNDPWKNCTQSLQCWKYFSDGHCDSQCNSAGCLFDGFDCQRAEGQCNPLYDQYCKDHFSDGHCDQGCNSAECEWDGLDCAEHVPERLAAGTLVVVVLMPPEQLRNSSFHFLRELSRVLHTNVVFKRDAHGQQMIFPYYGDVRGSIVYLEIDNRQCVQASSQCFQSATDVAAFLGALASLGSLNIPYKIEAVQSETVEPANSHHHHHH,soluble
18,MDSELKEEIPVHEEFILCGGAETQVLKCGPWTDLFHDQSVKRPKLLIFIIPGNPGFSAFYVPFAKALYSLTNRRFPVWTISHAGHALAPKDKKILTTSEDSNAQEIKDIYGLNGQIEHKLAFLRTHVPKDMKLVLIGHSIGSYFTLQMLKRVPELPVIRAFLLFPTIERMSESPNGRIATPLLCWFRYVLYVTGYLLLKPCPETIKSLLIRRGLQVMNLENEFSPLNILEPFCLANAAYLGGQEMMEVVKRDDETIKEHLCKLTFYYGTIDPWCPKEYYEDIKKDFPEGDIRLCEKNIPHAFITHFNQEMADMIADSLKDDLSKM,soluble
